Data on 6 molecules can be found in article PMC10030117 (eLife, 2023).

Assay [1] concerns the target T1, SARS-2 spike (2P-stabilized ectodomain with foldon) (SARS-CoV-2 Wuhan-Hu-1, UniProt P0DTC2, K986 substituted with proline | V987 substituted with proline). The assay can be described thus: far-Western, overlay or dot blot. The settings on record: both partners purified.
The target in assay [2] is T1, SARS-2 spike (2P-stabilized ectodomain …). Briefly: ELISA. (In general: In an ELISA, binding on a coated surface is turned into a signal by an enzyme label.)
Assay [3] addresses T2, SARS-2 HexaPro S2 (SARS-CoV-2 Wuhan-Hu-1, HexaPro, proline substitution at position 817 | proline substitution at position 892 | …). The assay can be described thus: BLI + SPR. The settings on record: both partners purified.
Assay [4] has as its target T2, SARS-2 HexaPro S2. The assay can be described thus: cryo-EM structure. Particulars: both partners purified.
A further assay has as its target SARS-2 HexaPro spike (SARS-CoV-2 Wuhan-Hu-1, HexaPro; T4 …, proline substitution at position 817 | proline substitution at position 892 | …). The assay can be described thus: BLI. Particulars: both partners purified.
Assay [5] deals with Authentic wild-type SARS-2 spike, full-length unstabilized, on the cell surface (Severe acute respiratory syndrome …, UniProt P0DTC2). Briefly: flow cytometry on cells. Particulars: one partner purified. A general note: A flow cytometer gives signals particle by particle.
For assay [6], the target named is SARS-2 4P-DS spike (4P with an additional stabilizing disulfide) (SARS-CoV-2 Wuhan-Hu-1, UniProt P0DTC2, disulfide bond between amino acids 965 and 1003 (965) | disulfide bond between …, disulfide bond between amino acids 965 and 1003; Alexa Fluor 647 label in the yeast display experiment). The assay can be described thus: SPR. Particulars: both partners purified.

B1: Antibody 3E11, full-length (mouse variable region-human IgG1 constant region chimera) (antibody, V domains shown)
VH: EVQLQQSGTVLARPGASVKMSCKASGYSFTNYWVHWVKQRPGQGLEWIGAIYPGNGDTTYNQKFKDKAKLTAVTSTSSAYMDLSSLTSEDSAVYYCTRRANYGSRYDYWGQGTTLTVSS
VL: DIVMTQSTSSLSASLGDRVTISCRASQGINNYLNWYQQKPDGTVKLLIYHTSRLHSGVPSRFSGSGSGTDYSLTISNLEQEDIATYFCQQGDTLPYTFGGGTKLEIK
notes: IgG1
As to B1, the binding result in assay [1] is listed as “binds”.

B2: 3E11 scFv displayed on M13 phage (scFv, V domains shown)
VH: EVQLQQSGTVLARPGASVKMSCKASGYSFTNYWVHWVKQRPGQGLEWIGAIYPGNGDTTYNQKFKDKAKLTAVTSTSSAYMDLSSLTSEDSAVYYCTRRANYGSRYDYWGQGTTLTVSS
VL: DIVMTQSTSSLSASLGDRVTISCRASQGINNYLNWYQQKPDGTVKLLIYHTSRLHSGVPSRFSGSGSGTDYSLTISNLEQEDIATYFCQQGDTLPYTFGGGTKLEIK
notes: VL-linker-VH order
As to B2, the binding result in assay [2] (one partner purified) was “binds”.

B3: 3A3 Fab (Fab, V domains shown)
VH: QVQLQQSGAELLKPGASVKLSCTASGFNIKDTYIHWLKQRPEQGLEWIGRIGPAIGNTIYAPKFQGKATITTDTSSNTAYLQLSSLTSEDTAVYYCARYYGSSYYYFDYWGQGTTLTVSS
VL: DIVMTQSAPSVPVTPGESVSISCRSSKSLLHSNGNTYLYWFLQRPGQSPQLLIYRMSNLASGVPDRFSGSGSGTAFTLRISRVEAEDVGVYYCMQYLEYPLTFGAGTKLELK
B3: the Kd with SARS-2 HexaPro S2 [3] is roughly 3 nM. Moreover, the “stoichiometry N” value with SARS-2 HexaPro S2 [4] came out at 1 Fab per S2 protomer.

B4: Antibody 3A3, full-length (mouse variable region-human IgG1 constant region chimera) (antibody, V domains shown)
VH: QVQLQQSGAELLKPGASVKLSCTASGFNIKDTYIHWLKQRPEQGLEWIGRIGPAIGNTIYAPKFQGKATITTDTSSNTAYLQLSSLTSEDTAVYYCARYYGSSYYYFDYWGQGTTLTVSS
VL: DIVMTQSAPSVPVTPGESVSISCRSSKSLLHSNGNTYLYWFLQRPGQSPQLLIYRMSNLASGVPDRFSGSGSGTAFTLRISRVEAEDVGVYYCMQYLEYPLTFGAGTKLELK
Consider B4, for which the kon in the assay with SARS-2 HexaPro spike came out at 800000 ± 100000 M⁻¹ s⁻¹. Further, in assay [2] (both partners purified), the “fold worse ELISA EC50 (stressed against fresh)” value is roughly 150 fold. The binding result in assay [5] is reported as “no binding (tested: ~1–300 nM)”.

B5: Antibody RAY53, full-length human IgG1 (antibody, V domains shown)
VH: QVQLVQSGAVVLKPGASVKLSCKASGFNIKNTYIHWLKQAPGQRLEWIGRIGPAIGNTIYAPKFQGKATITTDTSASTAYLELSSLRSEDTAVYYCARYYGSSYYYLDYWGQGTTVTVSS
VL: DIVMTQSPLSVPVTPGEPVSISCRSSKSLLHSNGNTYLYWFLQKPGQSPQLLIARMSTLASGVPDRFSGSGSGTAFTLKISRVEAEDVGVYYCMQYLEYPLTFGAGTKLEIK
For the molecule B5, the Kd in assay [6] came to 100 ± 16 nM; in assay [5], 100 ± 20 nM. Further, the binding result in assay [2] (both partners purified) was “binds”.

B6: RAY53 Fab (Fab, V domains shown)
VH: QVQLVQSGAVVLKPGASVKLSCKASGFNIKNTYIHWLKQAPGQRLEWIGRIGPAIGNTIYAPKFQGKATITTDTSASTAYLELSSLRSEDTAVYYCARYYGSSYYYLDYWGQGTTVTVSS
VL: DIVMTQSPLSVPVTPGEPVSISCRSSKSLLHSNGNTYLYWFLQKPGQSPQLLIARMSTLASGVPDRFSGSGSGTAFTLKISRVEAEDVGVYYCMQYLEYPLTFGAGTKLEIK
B6 came in with a Kd in assay [6] of 1300 ± 200 nM.

The Kd is a measure of binding affinity in units of concentration. Broadly, the stoichiometry N is the number of molecules, sites or subunits per partner or assembly. As usually defined, the kon is the rate constant with which the complex forms. A low value points to slower complex formation.
